# Test results taken from US20230374153A1 (PARADIGM IMMUNOTERAPEUTICS, published 2023).
# B1: ACE2 LVE IgG Fc STR chimeric antibody (LiVE) (Fc fusion)
# chain: QSTIEEQAKLFLDKFNVEAEDLFYQSSLASWNYNTNITEENVQNMNNAGDKWSAFLKEQSTLAQMYPLQEIQELTVKLQLQALQQNGSSVLSEDKSKRLNTILNTMSTIYSTGKVCNPDNPQECLLLEPGLNEIMANSLDYNERLWAWESWRSEVGKQLRPLYEEYVVLKNEMARANHYEDYGDYWRGDYEVNGVDGYDYSRGQLIEDVEHTFEEIKPLYEHLHAYVRAKLMNAYPSYISPIGCLPAHLLGDMWGRFWTNLYSLTVPFGQKPNIDVTDAMVDQAWDAQRIFKEAEKFFVSVGLPNMTQGFWENSMLTDPGNVQKAVCHPTAWDLGKGDFRILMCTKVTMDDFLTAHHEMGHIQYDMAYAAQPFLLRNGANEGFHEAVGEIMSLSAATPKHLKSIGLLSPDFQEDNETEINFLLKQALTIVGTLPFTYMLEKWRWMVFKGEIPKDQWMKKWWEMKREIVGVVEPVPHDETYCDPASLFHVSNDYSFIRYYTRTLYQFQFQEALCQAAKHEGPLHKCDISNSTEAGQKLFNMLRLGKSEPWTLALENVVGAKNMNVRPLLNYFEPLFTWLKDQNKNSFVGWSTDWSPYADQSIKVRISLKSALGDKAYEWNDNEMYLFRSSVAYAMRQYFLKVKNQMILFGEEDVRVANLKPRISFNFFVTAPKNVSDIIPRTEVEKAIRMSRSRINDAFRLNDNSLEFLGIQPTLGPPNQPPVSGGGGSGGGGSDKTHTCPPCPAPESTRGPSVFLFPPKPKDTLMISRTPEVTCVVVDVSHEDPEVKFNWYVDGVEVHNAKTKPREEQYNSTYRVVSVLTVLHQDWLNGKEYKCKVSNKALPAPIEKTISKAKGQPREPQVYTLPPSRDELTKNQVSLTCLVKGFYPSDIAVEWESNGQPENNYKTTPPVLDSDGSFFLYSKLTVDKSRWQQGNVFSCSVMHEALHNHYTQKSLSLSPGK
# B2: ACE2 LVE IgG Fc STR YTE chimeric antibody (LiVE Longer) (Fc fusion)
# chain: QSTIEEQAKLFLDKFNVEAEDLFYQSSLASWNYNTNITEENVQNMNNAGDKWSAFLKEQSTLAQMYPLQEIQELTVKLQLQALQQNGSSVLSEDKSKRLNTILNTMSTIYSTGKVCNPDNPQECLLLEPGLNEIMANSLDYNERLWAWESWRSEVGKQLRPLYEEYVVLKNEMARANHYEDYGDYWRGDYEVNGVDGYDYSRGQLIEDVEHTFEEIKPLYEHLHAYVRAKLMNAYPSYISPIGCLPAHLLGDMWGRFWTNLYSLTVPFGQKPNIDVTDAMVDQAWDAQRIFKEAEKFFVSVGLPNMTQGFWENSMLTDPGNVQKAVCHPTAWDLGKGDFRILMCTKVTMDDFLTAHHEMGHIQYDMAYAAQPFLLRNGANEGFHEAVGEIMSLSAATPKHLKSIGLLSPDFQEDNETEINFLLKQALTIVGTLPFTYMLEKWRWMVFKGEIPKDQWMKKWWEMKREIVGVVEPVPHDETYCDPASLFHVSNDYSFIRYYTRTLYQFQFQEALCQAAKHEGPLHKCDISNSTEAGQKLFNMLRLGKSEPWTLALENVVGAKNMNVRPLLNYFEPLFTWLKDQNKNSFVGWSTDWSPYADQSIKVRISLKSALGDKAYEWNDNEMYLFRSSVAYAMRQYFLKVKNQMILFGEEDVRVANLKPRISFNFFVTAPKNVSDIIPRTEVEKAIRMSRSRINDAFRLNDNSLEFLGIQPTLGPPNQPPVSGGGGSGGGGSDKTHTCPPCPAPESTRGPSVFLFPPKPKDTLYITREPEVTCVVVDVSHEDPEVKFNWYVDGVEVHNAKTKPREEQYNSTYRVVSVLTVLHQDWLNGKEYKCKVSNKALPAPIEKTISKAKGQPREPQVYTLPPSRDELTKNQVSLTCLVKGFYPSDIAVEWESNGQPENNYKTTPPVLDSDGSFFLYSKLTVDKSRWQQGNVFSCSVMHEALHNHYTQKSLSLSPGK
# Key:
# [1] = molecular target: T1, FcRn (neonatal Fc receptor) (UniProt P55899 24-297; P61769 21-119); assay: SPR (Biacore, ACRO Biosystems), pH 6.0
# T1 construct: also called FCGRT; purified FcRn receptor
# T1 sequence (P55899 24-297 limits assumed, chain 1 of 2): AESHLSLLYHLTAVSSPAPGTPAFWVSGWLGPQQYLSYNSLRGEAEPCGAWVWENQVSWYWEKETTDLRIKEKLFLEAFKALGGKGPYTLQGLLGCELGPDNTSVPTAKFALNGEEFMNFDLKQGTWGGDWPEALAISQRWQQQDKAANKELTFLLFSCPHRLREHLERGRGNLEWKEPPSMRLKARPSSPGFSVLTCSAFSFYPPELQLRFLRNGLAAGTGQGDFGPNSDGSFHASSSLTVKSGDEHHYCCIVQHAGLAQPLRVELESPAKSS
# T1 sequence (P61769 21-119 limits assumed, chain 2 of 2): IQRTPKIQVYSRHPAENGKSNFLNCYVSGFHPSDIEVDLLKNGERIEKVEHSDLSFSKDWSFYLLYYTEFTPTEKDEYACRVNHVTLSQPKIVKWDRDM
# [2] = molecular target: T1, FcRn (neonatal Fc receptor)
Binder,Kd [1] [nM],koff [2] [s⁻¹],kon [2] [M⁻¹ s⁻¹]
B1,517,,
B2,26.7,0.00412,155000
